Measurements: patent US9394379B2, “Process for producing water-soluble hyaluronic acid modification” (Chugai Seiyaku Kabushiki Kaisha, priority 2004, dated 2016)
Where no end group is shown, it is not given here.

Tests used:
[1] = Residence time in blood of HA-GLP-1 mutant conjugate (Test Example 5); format: in vivo, rat
Procedure: The HA-GLP-1 mutant conjugate solution obtained in Example 15-2 was diluted with PBS that contained 0.05% Tween 80 (pH 7.4; hereinafter also referred to as “solvent Z”), and the thus diluted solution was then administered at a dosage of 50 μg/kg into the vein of a rat as a single dose. Thereafter, 1, 4, 8, 24, 48, 72, 96, and 168 hours after the administration, the blood was collected (heparin treatment). The blood was then centrifuged, so as to obtain plasma. This plasma sample was cryopreserved at −20° C. or less until measurement was carried out.
Thereafter, they were analyzed using a microplate reader. Conditions for measurement are described below:
Microplate reader: SPECTRA MAX GEMINI (manufactured by Molecular Devices)
Detection: Fluorescence (EX: 355 nm, EM: 460 nm)
The HA-GLP-1 mutant conjugate solution obtained in Example 15-2 was diluted with solvent Z and Assay Buffer included with kit W, so as to prepare standard solutions having concentrations of 12.8, 6.4, 3.2, 1.6, 0.8, 0.4, 0.2, 0.1 μg/ml and 0 μg/ml. Thereafter, 5 μl of normal rat plasma was added to this standard solution, so as to prepare a sample used for calibration curve.
Assay Buffer included with kit W was added to the HA-GLP-1 mutant conjugate-administered rat plasma sample, so as to prepare a measurement sample.
The concentration of the HA-GLP-1 mutant conjugate in plasma was calculated based on the calibration curve obtained from the fluorescence intensity of each standard sample using analysis software SOFTmax PRO (manufactured by Molecular Devices).
With regard to data of a change in the concentration in blood of the administered HA-GLP-1 mutant conjugate, pharmacokinetic parameters were calculated using WinNonlin Ver 4.0.1 (manufactured by Pharsight). With regard to a change in the concentration in plasma of each individual, model-independent analysis was carried out, so as to calculate the mean residence time in blood (MRT). The half-life (t1/2) was calculated using the data of the final 3 measurable points of each individual.

[2] = tested on: BKS.Cg-+Lepr^db/+Lepr^db/Jcl mouse; assay: Oral sugar tolerance test; format: in vivo; conditions: for Hypoglycemic ratio: mean value
Procedure: 8-week-old male BKS.Cg-+Lepr^db/+Lepr^db/Jcl mouse (manufactured by CLEA Japan, Inc.) was subjected to fasting overnight. Thereafter, the HA-GLP-1 mutant conjugate solution obtained in Example 15-2 that had been diluted with solvent Z (peptide amount: 1.5 μg/kg, 15 μg/kg, or 150 μg/kg) or solvent Z was intravenously administered to the above […]. 1 minute after the intravenous administration, a 50% glucose solution (Otsuka Pharmaceutical Co., Ltd.) was orally administered at a dosage of 3 g/kg. […]
The blood was collected from the tail portion before administration of glucose (value at hour 0), and 0.5, 1, 2, and 4 hours after the administration of glucose. Thereafter, the blood glucose level was measured by the enzyme method (hexokinase method, Autosera S GLU (Daiichi Pure Chemical Co., Ltd.; equipment name: BioMajesty JCA-BM1250 (JEOL Ltd.)).
The blood glucose level was calculated by the following hypoglycemic ratio: […]
The mean value and standard deviation of each group were calculated from the calculated hypoglycemic ratio.

[3] = intravenously administered to a rat
[4] = rat vein, 50 μg/kg single dose, mean value

HA-GLP-1 mutant conjugate: GLP-1 mutant (Gly at position 8, Cys at position 37) bound to HA-AM-MI/SUC; 3.7 GLP-1 mutant/HA (mol/mol) (HGEGTFTSDVSSYLEGQAAKEFIAWLVKGRC; also: bound to modified hyaluronic acid HA-AM-MI/SUC, 3.7 peptide per HA, attachment site not given here; UniProt P01275 98-128, looked up, variant A8G G37C)
MRT [1, 3]: 30.2 h
half-life [1, 3]: 23.6 h
Distribution volume [1, 4]: 53.4 mL/kg
Mean residence time in blood [1, 4]: 30.2 h
Total clearance [1, 4]: 1.8 mL/h/kg
half-life [1, 4]: 23.6 h
hypoglycemic action compared with GLP-1 (Human, 7-37) ([2]; oral sugar tolerance test): significantly increased
Hypoglycemic ratio ([2]; peptide amount 1.5 μg/kg intravenous 1 minute before oral glucose 3 g/kg): 3.0%
Hypoglycemic ratio ([2]; peptide amount 15 μg/kg intravenous 1 minute before oral glucose 3 g/kg): 60.1%
Hypoglycemic ratio ([2]; peptide amount 150 μg/kg intravenous 1 minute before oral glucose 3 g/kg): 120.3%
